For experiment [1], the target named is human chemokine (C-C motif) receptor 8 (CCR8) (human, UniProt P51685 1-355). As to the kind of experiment: cell-based or functional assay.
The target in experiment [2] is T1, human CCR8 (human, UniProt P51685 1-355).
T1 construct: Native CCR8 on human PBMC (CCR8+ CD3+ or CCR8+ CD4+ lymphocytes); also called chemokine (C-C motif) receptor 8
In words: flow blocking, PBMC CCR8+CD3+; competitor PE-AB5. The method, boiled down:
(§1)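 First, cell suspension was incubated with 10 μg blocking antibody or isotype. Next, 0.25 μg PE-labelled antibody plus anti-CD4 APC or anti-CD3 was added for 15 min in the dark, followed by two washes. Finally, MFI of CCR8+ lymphocytes was acquired and converted to percent blocking against isotype.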

For experiment [3], the target named is T1, human CCR8. As to the kind of experiment: flow blocking, PBMC CCR8+CD3+; competitor PE-AB6. A digest of the protocol: as §1
Experiment [4] has as its target T1, human CCR8. As to the kind of experiment: flow blocking, PBMC CCR8+CD3+; competitor PE-AB7. The method, boiled down: as §1
Experiment [5] has as its target T1, human CCR8. As to the kind of experiment: flow blocking, PBMC CCR8+CD3+; competitor PE-AB8. The method, boiled down: as §1
Experiment [6] concerns the target T1, human CCR8. In words: flow blocking, PBMC CCR8+CD4+; competitor PE-AB1. The method, boiled down:
(§2)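 Cells were preincubated with 10 μg purified unlabeled antibody or isotype control, then stained 15 min in the dark with 0.25 μg PE-conjugated competitor plus anti-CD4 or anti-CD3. MFI on CCR8+ CD4+ (or CD3+) lymphocytes by flow; blocking % = 100 − (MFI blocked / MFI isotype-blocked × 100).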

Experiment [7] deals with T1, human CCR8. As to the kind of experiment: flow blocking, PBMC CCR8+CD4+; competitor PE-AB2. A digest of the protocol: as §2
Experiment [8] has as its target T1, human CCR8. In words: flow blocking, PBMC CCR8+CD4+; competitor PE-AB3. The method, boiled down:
as §2

In experiment [9] the target is T1, human CCR8. As to the kind of experiment: flow blocking, PBMC CCR8+CD4+; competitor PE-AB4. A digest of the protocol:
as §2

For experiment [10], the target named is T1, human CCR8. As to the kind of experiment: flow blocking, PBMC CCR8+CD4+; competitor PE-AB5. The method, boiled down:
as §2

In experiment [11] the target is T1, human CCR8. In words: flow blocking, PBMC CCR8+CD4+; competitor PE-AB6.
Experiment [12] addresses T1, human CCR8. As to the kind of experiment: flow blocking, PBMC CCR8+CD3+; competitor PE-433H. A digest of the protocol: as §1
Experiment [13] deals with T1, human CCR8. In words: flow blocking, PBMC CCR8+CD3+; competitor PE-AB10. The method, boiled down:
as §1

For experiment [14], the target named is T1, human CCR8. In words: flow blocking, PBMC CCR8+CD3+; competitor PE-AB11. The method, boiled down: as §1
The target of experiment [15] is T1, human CCR8. As to the kind of experiment: flow blocking, PBMC CCR8+CD3+; competitor PE-AB12. The method, boiled down: as §1
Experiment [16] addresses T1, human CCR8. As to the kind of experiment: flow blocking, PBMC CCR8+CD3+; competitor PE-AB13. A digest of the protocol: as §1
For experiment [17], the target named is T1, human CCR8. In words: flow blocking, PBMC CCR8+CD3+; competitor PE-AB14. The method, boiled down: as §1
The target in experiment [18] is T1, human CCR8. As to the kind of experiment: flow blocking, PBMC CCR8+CD3+; competitor PE-AB15. A digest of the protocol:
as §1

Experiment [19] concerns the target T1, human CCR8. In words: flow blocking, PBMC CCR8+CD4+; competitor PE-433H. The method, boiled down:
(§3)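 Human PBMC (100 μL suspension) were pre-blocked with 10 μg of each unlabelled anti-CCR8 antibody or isotype control. Cells were then stained 15 min in the dark with 0.25 μg of the PE-conjugated competitor antibody plus anti-CD4 or anti-CD3. Read-out by flow cytometry as MFI on CCR8+CD4+ or CCR8+CD3+ lymphocytes.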

Experiment [20] has as its target T1, human CCR8. In words: flow blocking, PBMC CCR8+CD4+; competitor PE-AB10. The method, boiled down:
as §2

For experiment [21], the target named is T1, human CCR8. As to the kind of experiment: flow blocking, PBMC CCR8+CD4+; competitor PE-AB11. A digest of the protocol:
as §2

Experiment [22] deals with T1, human CCR8. As to the kind of experiment: flow blocking, PBMC CCR8+CD4+; competitor PE-AB12. A digest of the protocol: as §2
Experiment [23] has as its target T1, human CCR8. In words: flow blocking, PBMC CCR8+CD4+; competitor PE-AB13. A digest of the protocol:
as §3

In experiment [24] the target is T1, human CCR8. As to the kind of experiment: flow blocking, PBMC CCR8+CD4+; competitor PE-AB14. The method, boiled down:
as §3

The target of experiment [25] is T1, human CCR8. In words: flow blocking, PBMC CCR8+CD4+; competitor PE-AB15. The method, boiled down: as §2
Experiment [26] deals with T1, human CCR8. As to the kind of experiment: flow blocking, PBMC CCR8+CD3+; competitor PE-L263G8. The method, boiled down:
as §1

T1 sequence (P51685 whole entry): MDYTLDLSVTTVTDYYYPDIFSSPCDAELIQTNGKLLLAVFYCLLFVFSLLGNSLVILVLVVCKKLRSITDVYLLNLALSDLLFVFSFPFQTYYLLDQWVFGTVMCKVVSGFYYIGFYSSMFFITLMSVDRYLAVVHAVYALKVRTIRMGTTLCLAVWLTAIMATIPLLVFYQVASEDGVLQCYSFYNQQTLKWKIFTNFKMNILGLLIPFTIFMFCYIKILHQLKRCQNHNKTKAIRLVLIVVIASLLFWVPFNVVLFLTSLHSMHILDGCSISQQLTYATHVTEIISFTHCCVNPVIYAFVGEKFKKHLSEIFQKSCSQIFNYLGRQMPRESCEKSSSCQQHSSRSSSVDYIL
human chemokine (C-C motif) receptor 8 (CCR8), sequence (P51685 whole entry): as above

B1: AB7 (antibody, V domains shown)
VH: AVQLVESGGGLVQPKESLKISCAASGFTFSYAAMYWVRQTPGKGLEWVARIRTKPNNYATYYADSVKGRFTISRDDSKSMVYLQMDNLKSEDTAMYYCNIMGITRGYYFDYWGQGVMVTVSS
VL: DIQMTQSPSFLSASVGDRVTINCKASQNINRYLNWYQQQLGEAPKLLIYNANNLQTGIPSRFSGSRSGTDFTLTISSLQPEDVATYFCLQHNSWPWTFGGGTKLELK
Regarding B1, the “% hCCR8-Ba/F3 - THP-1 complexes” value in [1] came out at 2.2%.

B2: AB6 (antibody, V domains shown)
VH: QVQLKESGPGLVQPSQTLSLTCTVSGFSLTSYHVSWVRQPPGKGLEWMGVIWTGGSTTYNSLLKSRLSISRDISKSQVFLKMNSLQTEDTATYYCARGGTVVKGGFAYWGQGTLVTVSS
VL: DIQMTQSPASLSASLEEIVTITCQASQDIGNRLSWYQQKPGKSPQLLIYGATSLADGVPSRFSGSRSGTQYSLKISRLQVEDIGIYYCLQAYSTPLTFGSGTKLEIK
Turning to B2, the “% hCCR8-Ba/F3 - THP-1 complexes” value in experiment [1] was determined as 1.88%.

B3: AB13 (antibody, V domains shown)
VH: EVQLVETGGGLVQPKGSLKLSCAASGFTFNAYAMNWVRQAPGKGLEWVARIRTKSNNYATYYADSVKDRFTISRDDSQTMLYLQMNNLKTEDTAMYYCVRDRATVTTGRAMDYWGQGTSVTVSS
VL: DIVMTQAAPSLPVTPGESVSISCRSSKSLLHSNGNTYLYWFLQRAGQSPQLLIYRMSNLASGVPDRFSGSGSGTAFTLRISRVEAEDVGVYYCMQHLEYPFTFGSGTKLEIK
notes: Hybridoma monoclonal; also called antibody 13; clone 13
Turning to B3, the “% Blocking” value in [2] is -14.7%; in experiment [3], -17.2%; in [4] it was 46.1%; in experiment [5], 44.1%; in experiment [6], -36.8%; in experiment [7], -33.5%. Moreover, the “% Blocking” value in [8] is -19.3%; in [9], -18.5%; in experiment [10], -7.92%; in experiment [11] it was 1.49%; in experiment [12], 8.18%; in experiment [13], 8.91%. Moreover, the “% Blocking” value in experiment [14] stood at 5.33%; in experiment [15], 21.8%; in [16], 24.6%; in [17], 30.8%; in experiment [18], 30%; in experiment [19] it was 34.7%. Also, the “% Blocking” value in experiment [20] was 96%; in [21], 98%; in experiment [22] it was 99.4%; in experiment [23], 95.5%; in experiment [24] it was 99.2%; in experiment [25], -34.9%. The “% Blocking” value in [26] was determined as 11.8%. Besides, the MFI in experiment [2] turned out to be 1130; in experiment [3], 1080; in experiment [4], 630; in [5], 664; in [12], 814; in [13], 726. In addition, the MFI in [14] came out at 878; in [15] it was 800; in [16], 668; in experiment [17], 598; in experiment [18] it was 601; in experiment [26], 594. The “% Positive cells” value in experiment [6] came out at 2.12%; in [7], 2.19%; in experiment [8], 2.04%; in experiment [9] it was 2.11%; in [10] it was 2.18%; in experiment [11] it was 1.99%. The “% Positive cells” value in experiment [19] amounted to 1.15%; in experiment [20], 0.06%; in experiment [21], 0.04%; in experiment [22], 0.01%; in experiment [23] it was 0.09%; in experiment [24], 0.01%. Moreover, the “% Positive cells” value in [25] was 1.74%.

The values above are taken from patent US20240360228A1 (BIOLEGEND, published 2024).
